Data as given in publication PMC9669019, “Molecular basis for integrin adhesion receptor binding to p21-activated kinase 4 (PAK4)” (Communications Biology, 2022).

Tests used:
integrin β5 tail [1] = test: Pull-down of wild-type and mutated GFP-PAK4 catalytic domain by wild-type integrin β5 tail; type: binding
Description: (§1) Pull down assays were performed as previously described[45],[60]. Briefly, constructs encoding an N-terminal His-tag followed by a helical region, a 4-glycine spacer, and an integrin cytoplasmic tail sequence were produced in BL21 (DE3) bacteria. Following bacterial cell lysis, recombinant protein was bound to Ni-NTA beads, eluted with imidazole, dialyzed and further purified by reverse-phase high-performance liquid chromatography (HPLC). Purified protein was lyophilized for storage and was used to coat fresh Ni-NTA beads to generate an affinity matrix for pull-down assays.
(§2) For pulldowns from cell lysates, human PAK4 constructs were generated in pEGFP (Takara Bio Inc.) by PCR amplification from a pLX304 PAK4 isoform 1 (Uniprot O96013-1) construct kindly provided by Michael Calderwood (Dana-Farber Cancer Institute). Mutations and deletions were introduced by QuikChange mutagenesis or PCR amplification. Chinese hamster ovary (CHO) cells were seeded on 10 cm tissue culture dishes and transiently transfected with GFP-tagged constructs using polyethylenimine (Polysciences). After 24 h, cells were harvested and lysed in buffer X (1 mM NaVO4, 50 mM NaF, 40 mM sodium pyrophosphate, 50 mM NaCl, 150 mM sucrose, 10 mM Pipes, pH 6.8) containing 0.5% Triton X-100, 0.2% deoxycholic acid, and complete EDTA-free protease inhibitor mixture (Roche, Indianapolis, IN, USA) for 15 min at 4 °C. After clarification by centrifugation, lysate was diluted in buffer X-T (buffer X with 0.05% Triton X-100) and incubated with His-tagged integrin tails coupled to Ni-NTA beads for 4 h with rocking at 4 °C. For experiments using purified PAK4cat, protein was incubated with His-tagged integrin tails coupled to Ni-NTA beads in buffer X-T for 2 h with rocking at 4 °C. Beads were then washed three times with buffer X-T, and bound proteins were fractionated by reducing SDS-PAGE and analyzed by immunoblotting with anti-GFP antibodies (600-101-215, Rockland). Immunoblots were imaged on an Odyssey IR imaging system (Li-Cor; Lincoln, NE, USA) and analyzed using Image Studio Lite (Li-Cor; Lincoln, NE, USA). For the quantification of binding from immunoblots, the fluorescence intensity of the band corresponding to bound material was quantified as a fraction of the fluorescence of the input material band for each condition. Loading of integrin tails was assessed by Coomassie Blue staining. Data were analyzed using GraphPad Prism.

integrin β5 tail [2] = test: Pull-down of wild-type and mutated full-length GFP-PAK4 by wild-type integrin β5 tail; type: binding
Description: as §1, §2

[3] = Figure 4G source data, PAK4 catalytic domain, replicate 1

Binding to wild-type integrin β5 tail, normalized to cat-WT (integrin β5 tail [1]; [3]) | Binding to wild-type integrin β5 tail, normalized to cat-WT (integrin β5 tail [1]; Figure 4G, replicate 2) | Binding to wild-type integrin β5 tail, normalized to cat-WT (integrin β5 tail [1]; Figure 4G, replicate 3) | Binding to wild-type integrin β5 tail, normalized to cat-WT (integrin β5 tail [1]; Figure 4G, replicate 4) | Binding to wild-type integrin β5 tail, normalized to cat-WT (integrin β5 tail [1]; Figure 4G, replicate 5) | Binding to wild-type integrin β5 tail, normalized to cat-WT (integrin β5 tail [1]; Figure 4G, replicate 6) | Binding to wild-type integrin β5 tail, normalized to cat-WT (integrin β5 tail [1]; Figure 4G, replicate 7) | Binding to wild-type integrin β5 tail, normalized to FL-WT (integrin β5 tail [2]; Figure 4H source data, full-length PAK4, experiment row r4) | Binding to wild-type integrin β5 tail, normalized to FL-WT (integrin β5 tail [2]; Figure 4H, experiment row r7) | Binding to wild-type integrin β5 tail, normalized to FL-WT (integrin β5 tail [2]; Figure 4H, experiment row r13) | Binding to wild-type integrin β5 tail, normalized to FL-WT (integrin β5 tail [2]; Figure 4H, experiment row r14) | Binding to wild-type integrin β5 tail, normalized to FL-WT (integrin β5 tail [2]; Figure 4H, experiment row r15) | Binding to wild-type integrin β5 tail, normalized to FL-WT (integrin β5 tail [2]; Figure 4H, experiment row r5) | Binding to wild-type integrin β5 tail, normalized to FL-WT (integrin β5 tail [2]; Figure 4H, experiment row r6) | Binding to wild-type integrin β5 tail, normalized to FL-WT (integrin β5 tail [2]; Figure 4H, experiment row r8) | Binding to wild-type integrin β5 tail, normalized to FL-WT (integrin β5 tail [2]; Figure 4H, experiment row r9) | Binding to wild-type integrin β5 tail, normalized to FL-WT (integrin β5 tail [2]; Figure 4H, experiment row r17) | Binding to wild-type integrin β5 tail, normalized to FL-WT (integrin β5 tail [2]; Figure 4H, experiment row r19) | Molecule
0.1667 | 0.1098 | 2.475e-5 | 0.334 | 0.004908 | 0.1746 | 0.115 | 0.011 | 0.517 | 0.253 | 0.329 | 0.208 | – | – | – | – | – | – | D444R: GFP-tagged PAK4 D444R mutant; catalytic domain (Fig 4G) or full-length (Fig 4H) (protein, UniProt O96013 1-591, looked up, variant D444R, GFP tag; catalytic domain or full-length) Serine/threonine-protein …: MFGKRKKRVEISAPSNFEHRVHTGFDQHEQKFTGLPRQWQSLIEESARRPKPLVDPACITSIQPGAPKTIVRGSKGAKDGALTLLLDEFENMSVTRSNSLRRDSPPPPARARQENGMPEEPATTARGGPGKAGSRGRFAGHSEAGGGSGDRRRAGPEKRPKSSREGSGGPQESSRDKRPLSGPDVGTPQPAGLASGAKLAAGRPFNTYPRADTDHPSRGAQGEPHDVAPNGPSAGGLAIPQSSSSSSRPPTRARGAPSPGVLGPHASEPQLAPPACTPAAPAVPGPPGPRSPQREPQRVSHEQFRAALQLVVDPGDPRSYLDNFIKIGEGSTGIVCIATVRSSGKLVAVKKMDLRKQQRRELLFNEVVIMRDYQHENVVEMYNSYLVGDELWVVMEFLEGGALTDIVTHTRMNEEQIAAVCLAVLQALSVLHAQGVIHRDIKSRSILLTHDGRVKLSDFGFCAQVSKEVPRRKSLVGTPYWMAPELISRLPYGPEVDIWSLGIMVIEMVDGEPPYFNEPPLKAMKMIRDNLPPRLKNLHKVSPSLKGFLDRLLVRDPAQRATAAELLKHPFLAKAGPPASIVPLMRQNRTR
0.4077 | 0.4295 | 0.5407 | 0.2568 | 0.7435 | 0.2789 | 0.1085 | – | 0.561 | – | – | – | 0.029 | 0.62 | 0.262 | 0.4 | 0.03 | 0.1 | E512A: GFP-tagged PAK4 E512A mutant; catalytic domain (Fig 4G) or full-length (Fig 4H) (protein, UniProt O96013 1-591, looked up, variant E512A, GFP tag; catalytic domain or full-length) Serine/threonine-protein …: MFGKRKKRVEISAPSNFEHRVHTGFDQHEQKFTGLPRQWQSLIEESARRPKPLVDPACITSIQPGAPKTIVRGSKGAKDGALTLLLDEFENMSVTRSNSLRRDSPPPPARARQENGMPEEPATTARGGPGKAGSRGRFAGHSEAGGGSGDRRRAGPEKRPKSSREGSGGPQESSRDKRPLSGPDVGTPQPAGLASGAKLAAGRPFNTYPRADTDHPSRGAQGEPHDVAPNGPSAGGLAIPQSSSSSSRPPTRARGAPSPGVLGPHASEPQLAPPACTPAAPAVPGPPGPRSPQREPQRVSHEQFRAALQLVVDPGDPRSYLDNFIKIGEGSTGIVCIATVRSSGKLVAVKKMDLRKQQRRELLFNEVVIMRDYQHENVVEMYNSYLVGDELWVVMEFLEGGALTDIVTHTRMNEEQIAAVCLAVLQALSVLHAQGVIHRDIKSDSILLTHDGRVKLSDFGFCAQVSKEVPRRKSLVGTPYWMAPELISRLPYGPEVDIWSLGIMVIEMVDGAPPYFNEPPLKAMKMIRDNLPPRLKNLHKVSPSLKGFLDRLLVRDPAQRATAAELLKHPFLAKAGPPASIVPLMRQNRTR
